Publication PMC517823 (2004)

T1: Ffh (UniProt P0AGD7 1-453)
T1 chain: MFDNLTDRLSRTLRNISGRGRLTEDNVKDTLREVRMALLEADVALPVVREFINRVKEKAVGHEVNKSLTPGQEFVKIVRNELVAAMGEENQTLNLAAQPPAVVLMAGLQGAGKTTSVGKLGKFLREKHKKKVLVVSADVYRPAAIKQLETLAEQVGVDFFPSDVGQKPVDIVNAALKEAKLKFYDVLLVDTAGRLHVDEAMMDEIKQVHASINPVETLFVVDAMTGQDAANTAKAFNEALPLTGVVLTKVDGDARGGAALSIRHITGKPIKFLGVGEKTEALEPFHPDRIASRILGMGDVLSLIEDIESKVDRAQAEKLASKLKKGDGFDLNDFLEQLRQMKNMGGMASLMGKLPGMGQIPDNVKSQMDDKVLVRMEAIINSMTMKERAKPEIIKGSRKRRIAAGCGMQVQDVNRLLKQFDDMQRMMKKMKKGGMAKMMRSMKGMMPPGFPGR


Molecular target: T1, Ffh
Assay: GTP; inhibition assay

Binder	Ki [nM]
FtsY D330(135)A (protein) ASEQAVEEQPQAHTEAEAETFAADVVEVTEQVAESEKAQPEAEVVAQPEPVVEETPEPVAIEREELPLPEDVNAEAVSPEEWQAEAETVEIVEAAEEEAAKEEITDEELETALAAEAAEEAVMVVPPAEEEQPVEEIAQEQEKPTKEGFFARLKRSLLKTKENLGSGFISLFRGKKIDDDLFEELEEQLLIADVGVETTRKIITNLTEGASRKQLRDAEALYGLLKEEMGEILAKVDEPLNVEGKAPFVILMVGVNGVGKTTTIGKLARQFEQQGKSVMLAAGATFRAAAVEQLQVWGQRNNIPVIAQHTGADSASVIFDAIQAAKARNIDVLIADTAGRLQNKSHLMEELKKIVRVMKKLDVEAPHEVMLTIDASTGQNAVSQAKLFHEAVGLTGITLTKLDGTAKGGVIFSVADQFGIPIRYIGVGERIEDLRPFKADDFIEALFARED	2400
FtsY Q339(144)A (protein) ASEQAVEEQPQAHTEAEAETFAADVVEVTEQVAESEKAQPEAEVVAQPEPVVEETPEPVAIEREELPLPEDVNAEAVSPEEWQAEAETVEIVEAAEEEAAKEEITDEELETALAAEAAEEAVMVVPPAEEEQPVEEIAQEQEKPTKEGFFARLKRSLLKTKENLGSGFISLFRGKKIDDDLFEELEEQLLIADVGVETTRKIITNLTEGASRKQLRDAEALYGLLKEEMGEILAKVDEPLNVEGKAPFVILMVGVNGVGKTTTIGKLARQFEQQGKSVMLAAGDTFRAAAVEALQVWGQRNNIPVIAQHTGADSASVIFDAIQAAKARNIDVLIADTAGRLQNKSHLMEELKKIVRVMKKLDVEAPHEVMLTIDASTGQNAVSQAKLFHEAVGLTGITLTKLDGTAKGGVIFSVADQFGIPIRYIGVGERIEDLRPFKADDFIEALFARED	3900
FtsY K312(117)A (protein) ASEQAVEEQPQAHTEAEAETFAADVVEVTEQVAESEKAQPEAEVVAQPEPVVEETPEPVAIEREELPLPEDVNAEAVSPEEWQAEAETVEIVEAAEEEAAKEEITDEELETALAAEAAEEAVMVVPPAEEEQPVEEIAQEQEKPTKEGFFARLKRSLLKTKENLGSGFISLFRGKKIDDDLFEELEEQLLIADVGVETTRKIITNLTEGASRKQLRDAEALYGLLKEEMGEILAKVDEPLNVEGKAPFVILMVGVNGVGKTTTIGALARQFEQQGKSVMLAAGDTFRAAAVEQLQVWGQRNNIPVIAQHTGADSASVIFDAIQAAKARNIDVLIADTAGRLQNKSHLMEELKKIVRVMKKLDVEAPHEVMLTIDASTGQNAVSQAKLFHEAVGLTGITLTKLDGTAKGGVIFSVADQFGIPIRYIGVGERIEDLRPFKADDFIEALFARED	2400
FtsY A336(141)W (domain or fragment) ASEQAVEEQPQAHTEAEAETFAADVVEVTEQVAESEKAQPEAEVVAQPEPVVEETPEPVAIEREELPLPEDVNAEAVSPEEWQAEAETVEIVEAAEEEAAKEEITDEELETALAAEAAEEAVMVVPPAEEEQPVEEIAQEQEKPTKEGFFARLKRSLLKTKENLGSGFISLFRGKKIDDDLFEELEEQLLIADVGVETTRKIITNLTEGASRKQLRDAEALYGLLKEEMGEILAKVDEPLNVEGKAPFVILMVGVNGVGKTTTIGKLARQFEQQGKSVMLAAGDTFRAAWVEQLQVWGQRNNIPVIAQHTGADSASVIFDAIQAAKARNIDVLIADTAGRLQNKSHLMEELKKIVRVMKKLDVEAPHEVMLTIDASTGQNAVSQAKLFHEAVGLTGITLTKLDGTAKGGVIFSVADQFGIPIRYIGVGERIEDLRPFKADDFIEALFARED	160
FtsY K306(111)A (protein) ASEQAVEEQPQAHTEAEAETFAADVVEVTEQVAESEKAQPEAEVVAQPEPVVEETPEPVAIEREELPLPEDVNAEAVSPEEWQAEAETVEIVEAAEEEAAKEEITDEELETALAAEAAEEAVMVVPPAEEEQPVEEIAQEQEKPTKEGFFARLKRSLLKTKENLGSGFISLFRGKKIDDDLFEELEEQLLIADVGVETTRKIITNLTEGASRKQLRDAEALYGLLKEEMGEILAKVDEPLNVEGKAPFVILMVGVNGVGATTTIGKLARQFEQQGKSVMLAAGDTFRAAAVEQLQVWGQRNNIPVIAQHTGADSASVIFDAIQAAKARNIDVLIADTAGRLQNKSHLMEELKKIVRVMKKLDVEAPHEVMLTIDASTGQNAVSQAKLFHEAVGLTGITLTKLDGTAKGGVIFSVADQFGIPIRYIGVGERIEDLRPFKADDFIEALFARED	3500
FtsY K453(252)E (protein) ASEQAVEEQPQAHTEAEAETFAADVVEVTEQVAESEKAQPEAEVVAQPEPVVEETPEPVAIEREELPLPEDVNAEAVSPEEWQAEAETVEIVEAAEEEAAKEEITDEELETALAAEAAEEAVMVVPPAEEEQPVEEIAQEQEKPTKEGFFARLKRSLLKTKENLGSGFISLFRGKKIDDDLFEELEEQLLIADVGVETTRKIITNLTEGASRKQLRDAEALYGLLKEEMGEILAKVDEPLNVEGKAPFVILMVGVNGVGKTTTIGKLARQFEQQGKSVMLAAGDTFRAAAVEQLQVWGQRNNIPVIAQHTGADSASVIFDAIQAAKARNIDVLIADTAGRLQNKSHLMEELKKIVRVMKKLDVEAPHEVMLTIDASTGQNAVSQAKLFHEAVGLTGITLTKLDGTAEGGVIFSVADQFGIPIRYIGVGERIEDLRPFKADDFIEALFARED	3100
FtsY T307(112)W (protein) ASEQAVEEQPQAHTEAEAETFAADVVEVTEQVAESEKAQPEAEVVAQPEPVVEETPEPVAIEREELPLPEDVNAEAVSPEEWQAEAETVEIVEAAEEEAAKEEITDEELETALAAEAAEEAVMVVPPAEEEQPVEEIAQEQEKPTKEGFFARLKRSLLKTKENLGSGFISLFRGKKIDDDLFEELEEQLLIADVGVETTRKIITNLTEGASRKQLRDAEALYGLLKEEMGEILAKVDEPLNVEGKAPFVILMVGVNGVGKWTTIGKLARQFEQQGKSVMLAAGDTFRAAAVEQLQVWGQRNNIPVIAQHTGADSASVIFDAIQAAKARNIDVLIADTAGRLQNKSHLMEELKKIVRVMKKLDVEAPHEVMLTIDASTGQNAVSQAKLFHEAVGLTGITLTKLDGTAKGGVIFSVADQFGIPIRYIGVGERIEDLRPFKADDFIEALFARED	9900
FtsY D479(278)A (protein) ASEQAVEEQPQAHTEAEAETFAADVVEVTEQVAESEKAQPEAEVVAQPEPVVEETPEPVAIEREELPLPEDVNAEAVSPEEWQAEAETVEIVEAAEEEAAKEEITDEELETALAAEAAEEAVMVVPPAEEEQPVEEIAQEQEKPTKEGFFARLKRSLLKTKENLGSGFISLFRGKKIDDDLFEELEEQLLIADVGVETTRKIITNLTEGASRKQLRDAEALYGLLKEEMGEILAKVDEPLNVEGKAPFVILMVGVNGVGKTTTIGKLARQFEQQGKSVMLAAGDTFRAAAVEQLQVWGQRNNIPVIAQHTGADSASVIFDAIQAAKARNIDVLIADTAGRLQNKSHLMEELKKIVRVMKKLDVEAPHEVMLTIDASTGQNAVSQAKLFHEAVGLTGITLTKLDGTAKGGVIFSVADQFGIPIRYIGVGERIEALRPFKADDFIEALFARED	2800
FtsY K447(246)A (protein) ASEQAVEEQPQAHTEAEAETFAADVVEVTEQVAESEKAQPEAEVVAQPEPVVEETPEPVAIEREELPLPEDVNAEAVSPEEWQAEAETVEIVEAAEEEAAKEEITDEELETALAAEAAEEAVMVVPPAEEEQPVEEIAQEQEKPTKEGFFARLKRSLLKTKENLGSGFISLFRGKKIDDDLFEELEEQLLIADVGVETTRKIITNLTEGASRKQLRDAEALYGLLKEEMGEILAKVDEPLNVEGKAPFVILMVGVNGVGKTTTIGKLARQFEQQGKSVMLAAGDTFRAAAVEQLQVWGQRNNIPVIAQHTGADSASVIFDAIQAAKARNIDVLIADTAGRLQNKSHLMEELKKIVRVMKKLDVEAPHEVMLTIDASTGQNAVSQAKLFHEAVGLTGITLTALDGTAKGGVIFSVADQFGIPIRYIGVGERIEDLRPFKADDFIEALFARED	11000
FtsY D382(187)A (protein) ASEQAVEEQPQAHTEAEAETFAADVVEVTEQVAESEKAQPEAEVVAQPEPVVEETPEPVAIEREELPLPEDVNAEAVSPEEWQAEAETVEIVEAAEEEAAKEEITDEELETALAAEAAEEAVMVVPPAEEEQPVEEIAQEQEKPTKEGFFARLKRSLLKTKENLGSGFISLFRGKKIDDDLFEELEEQLLIADVGVETTRKIITNLTEGASRKQLRDAEALYGLLKEEMGEILAKVDEPLNVEGKAPFVILMVGVNGVGKTTTIGKLARQFEQQGKSVMLAAGDTFRAAAVEQLQVWGQRNNIPVIAQHTGADSASVIFDAIQAAKARNIDVLIAATAGRLQNKSHLMEELKKIVRVMKKLDVEAPHEVMLTIDASTGQNAVSQAKLFHEAVGLTGITLTKLDGTAKGGVIFSVADQFGIPIRYIGVGERIEDLRPFKADDFIEALFARED	27000
FtsY Asn302(107) to Ala (domain or fragment) ASEQAVEEQPQAHTEAEAETFAADVVEVTEQVAESEKAQPEAEVVAQPEPVVEETPEPVAIEREELPLPEDVNAEAVSPEEWQAEAETVEIVEAAEEEAAKEEITDEELETALAAEAAEEAVMVVPPAEEEQPVEEIAQEQEKPTKEGFFARLKRSLLKTKENLGSGFISLFRGKKIDDDLFEELEEQLLIADVGVETTRKIITNLTEGASRKQLRDAEALYGLLKEEMGEILAKVDEPLNVEGKAPFVILMVGVAGVGKTTTIGKLARQFEQQGKSVMLAAGDTFRAAAVEQLQVWGQRNNIPVIAQHTGADSASVIFDAIQAAKARNIDVLIADTAGRLQNKSHLMEELKKIVRVMKKLDVEAPHEVMLTIDASTGQNAVSQAKLFHEAVGLTGITLTKLDGTAKGGVIFSVADQFGIPIRYIGVGERIEDLRPFKADDFIEALFARED	110
FtsY Asn302(107) to Trp (domain or fragment) ASEQAVEEQPQAHTEAEAETFAADVVEVTEQVAESEKAQPEAEVVAQPEPVVEETPEPVAIEREELPLPEDVNAEAVSPEEWQAEAETVEIVEAAEEEAAKEEITDEELETALAAEAAEEAVMVVPPAEEEQPVEEIAQEQEKPTKEGFFARLKRSLLKTKENLGSGFISLFRGKKIDDDLFEELEEQLLIADVGVETTRKIITNLTEGASRKQLRDAEALYGLLKEEMGEILAKVDEPLNVEGKAPFVILMVGVWGVGKTTTIGKLARQFEQQGKSVMLAAGDTFRAAAVEQLQVWGQRNNIPVIAQHTGADSASVIFDAIQAAKARNIDVLIADTAGRLQNKSHLMEELKKIVRVMKKLDVEAPHEVMLTIDASTGQNAVSQAKLFHEAVGLTGITLTKLDGTAKGGVIFSVADQFGIPIRYIGVGERIEDLRPFKADDFIEALFARED	140
